Experimental data: the DeepSol protein solubility set

assay: soluble on expression in E. coli; label from the status in PepcDB or PDB records

Sequence | soluble on expression in E. coli
GPGSMSNAVSGVIDARWMRFLRECKQRELVAEIEVLRRTFEATLDRKKGFSTTLLEELSVAEEQCRHAFRSHMDVVSSLLQLHAARTKDLEADLDANVAEMQQDFEYERAELELKHMIEMDDLRLILDNMAAEAEMLEKKLQEETSEGHETAAEKMDEAMREMEADLNKVEDGLRGELDSRYKKFMSAAQANMKEYTAKCKEDQETTERIAAQLRKIEKLQSSVSSWRTNIARNAKEWEDRNAAIQAERDATLSHLKKLKDKMQRWRELQSKALVELVKEANATEEALQATSKRAVRLLRLVELCKPMETEREQVLLHEANISSAAVEAETKRRVAAESSGNAQDDVLRGGDAAPAANEQWLSLDRFWVKHNKVVLDNAALTQERFLLEEENRVLQEVLKQYLDDVSISDQVMRQSNTLLLTQGANYNVVQAANASDNSVVRGYNVIEGNKFVNDQSRQAISH | not soluble
MEMRGKITKINENGLGVLGNILVPFAYPGDEVEVTETRERFGKIIARDFKLMTPSPLRIPGKCSHFGKCGGCLWQGLRYREQLKLKEEIFKRITGIEAEIKGSPRIWYFRNISNFIITVNGIGFKEFGMPKTVVNIRECPIFSERTPKYLKALKDFLRESNLKPWNWREGDVHYLQVREGKFTGEVMVNIIAHVPLNYREALMEAFNFADSIYWSLKADKKDDPRGFPTLVLGNEVIREKVEGITYLIHPSVFFQTNSYALPLLLKSVEKFCEGSKVLDLYSGIGTLSLYLAKRGFEVTGVEVNGTSVEMAKRSAEINSINATFIQGKAEDAELEGYETLIVDPPRKGLKEFSRRIVKKGPNTLIYVSCNPLRFILDYRNYLSEAYKVDDALLIDMFPHTPHIEAVIKLVRR | soluble
MAHHHHHHMVNEYHEAPRPAITLPRPGTKFRASAVEPILKKVCQTLVGDRAYAHEDVQPLIKEICSEIQQRVVRLGYERYKFVTHATVTEAVNQGIRIASRGLWDPVTDGYASYTFSTETMHVNVVLYALYWE | not soluble
MSLAETFWVDVQRAEGRPLNLELIAPLSVGSKSVEEVENVAIRVELTNGCVGWGEVPVFPSVTAVNHTVALAKAMEACEFLSCSSPMVLSLVLSEIGGILPGPELASVRAGVEMALIDAVANSIDVPLWRLFGGVANTLTTGVTLPTVFPAEAYSQGASKYCQSGFRTFKLKIGKNTSAEIKALQAIQAAHPLCSLILDANEAYTCQEAIEILQKLYDSGITPAVLEQPVHRSDWKGLGEVSNFAREKKYGISVAVDETCQSLIEVRRVIKENLADAINIKLAKFGVMGALEIIELARESGVKLMISGTVESRLATGFAAHLAAGLGCFKSVVLDMPFLLSEDPVICGYEASGPVYKFLNVRGQGGFLKWDFSSWEGHHHHHH | soluble
MSLTLDLRESEIVEAVYESNHTWVSVEAKIDYELDPTVLFHLTEENAGDRFYYKKNDNKTSFFGYHAITRFKNDFENKQSIFREWQKYKSDIELIHPSSDKHHLKICGGFQFSMHKSGDEWREFGINHFILPEVLITMENGVSYITYTVKAEQFEIEQFKALIAHLTQNTIDSEFEIGNIKRIEDIYKDEWRDLVKDTIDVLDEHKKIVLARKRLVMFDKNINIPYILQKASQGEHNSYLFVLESQDSIFFSQTPEQLMEVNNGILSTKAVAGTIKRTHQDEVDKENIQAFLNDDKNLNEHRFVVESILNDIAPYVRDITFNETPQILTNDHLYHLYTKIKGQLENDSYIGLLDNLHPTPALGGYPKAEAIEYIEQNEFGTRGLYGAPVGYIDMNDDCEFIVAIRSMLIKKNQATLFAGCGIVKNSDADSEVEETAVKFNPMMKALGVEEYEGHHHHHH | soluble
MGSDKIHHHHHHMAIRSSVLALCVATLLTGCQNLNTNTLMQSGAQAFQAATLSDAQVKALSDQSCEQMDKEAKIAPADSKYTQRLNKIADALGHDINGTPANYKVYLEKDVNAWAMANGCIRVYSGLMDMMNDNEVEGVLGHEMGHVALGHTRKAMQVAYAATAARTAIASAGGVAASLSQSQLADLGEKLVNSQFSQSQESQADDYSFDLLKKRGINREGLASSFEKLAKLDASHESSMFDSHPSSEGRAKHIRERITAEK | not soluble
KSIVKIRNRMAAETQTLNFGPEWLRALSSGGSITSPPLSPALPKYKLADYRYGREEMLALFLKDNKIPSDLLDKEFLPILQEEPLPPLALVPFTEEEQRNFSMSVNSAAVLRLTGRGGGGTVVGAPRGRSSSRGRGRGRGECGFYQRSFDEVEGVFGRGGGREMHRSQSWEERGDRRFEKPGRKDVGKKNGYYCMYSPVLLLGQPLCQGRPNFEEGGPTSVGRKHEFIRSESENWRIFREEQNGEDEDGGWRLAGSRRDGERWRPHSPDGPRSAGWREHMERRRRFEFDFRDRDDERGYRRVRSGSGSIDDDRDSLPEWCLEDAEEEMGTFDSSGAFLSLKKVQKEPIPEEQEMDFRPVDEGEECSDSEGSHNEEAKEPDKTNKKEGEKTDRVGVASEETPQTSSSSARPGTPSDHQSQEASQFERKDEPKTEQTEKAEEETRMENSLPAKVPSRGDEMVADVQQPLSQIPSDTASPLLILPPPVPNPSPTLRPVETPVVGAPGMGSVSTEPDDEEGLKHLEQQAEKMVAYLQDSALDDERLASKLQEHRAKGVSIPLMHEAMQKWYYKDPQGEIQGPFNNQEMAEWFQAGYFTMSLLVKRACDESFQPLGDIMKMWGRVPFSPGPAPPPHMGELDQERLTRQQELTALYQMQHLQYQQFLIQQQYAQVLAQQQKAALSSQQQQQLALLLQQFQTLKMRISDQNIIPSVTRSVSVPDTGSIWELQPTASQPTVWEGGSVWDLPLDTTTPGPALEQLQQLEKAKAAKLEQERREAEMRAKREEEERKRQEELRRQQEEILRRQQEEERKRREEEELARRKQEEALRRQREQEIALRRQREEEERQQQEEALRRLEERRREEEERRKQEELLRKQEEEAAKWAREEEEAQRRLEENRLRMEEEAARLRHEEEERKRKELEVQRQKELMRQRQQQQEALRRLQQQQQQQQLAQMKLPSSSTWGQQSNTTACQSQATLSLAEIQKLEEERERQLREEQRRQQRELMKALQQQQQQQQQKLSGWGNVSKPSGTTKSLLEIQQEEARQMQKQQQQQQQHQQPNRARNNTHSNLHTSIGNSVWGSINTGPPNQWASDLVSSIWSNADTKNSNMGFWDDAVKEVGPRNSTNKNKNNASLSKSVGVSNRQNKKVEEEEKLLKLFQGVNKAQDGFTQWCEQMLHALNTANNLDVPTFVSFLKEVESPYEVHDYIRAYLGDTSEAKEFAKQFLERRAKQKANQQRQQQQLPQQQQQQPPQQPPQQPQQQDSVWGMNHSTLHSVFQTNQSNNQQSNFEAVQSGKKKKKQKMVRADPSLLGFSVNASSERLNMGEIETLDDY | soluble
MSLNFDSLLLDIDGTLILKGQPLPGAAEALSFARAQGLRLQLLTNTTAKMPEALAQELCQAGIEVVPDEIQTATTACVGYLQQHAQLKCHLLVPDSIRAAFNGILTDDTNPDVVVISDIGEAFDYATLNRCFRMLRGGARLIALQKNLFWFDRDGERLDCGAFIVGLEAAAQVQALVMGKPSPMFFEAALRKLDTCASRTLVVGDDVLTDCAGAKAVGASSLLVRTGKYDLALFDAHRHNVGAVIDGIADFPRWWASGNTADRHDEGHHHHHH | soluble
MFPSVDPEKCEDKGECVSTCPYEVFELGIRTAEEISELSFIGRIEARAHGNRMARTSHIDMCHVCGDCVIVCSEKAIRLLPR | not soluble
MAHHHHHHMAEEGSGLHQFWNTQPVPQSSIDAADTVGPLEAAGTVDDVPTDPVAIASTLEWWSPDMDNKDDVRAIYELLRDNYVEDVESMFRFNYSEDFLRWALTPPGYHSSWHVAVRRKRDQMLMGFVSGIPVTMRMGAPKKVLQKNKTTEEKEQGPEEKNNDHKSQAEELYLEPRKICEINFLCVHKLLRAKRLAPILIKEVTRRVHLMNIWQAVYTAGRLLPTPFATADYYHRSLNPEKLVAVGFSAIPQQYQKFQNPLSMIKRFYELPAKPKTRGLRPMEPKDAPQVANLLRKKLATCDVAPVFTDEEVAHYTLPREGVLMSYVVEREVSGGGGGGRVDSSRGKQNDAGTQKQITDFFSFFSLPSSIIGSSKHSVLNAAYVFYSANTTISLVHLMSDLLIVAHQQGFDVCNVVNIMDNGDYLSELKFGRGDGNLHYYFYNWSYPIVQPSDVGLFML | not soluble
MSDKLTEKTVKLDTPIMRGKTEITEIVLRKPQSGALRGTRLQAIMDMDVGAMMTVIPRISTPTLTAQEMAELDPADLTALSVEVVTFLLKKSVLAGLPTA | not soluble
MGLLKDLSSARDKIERIYGLNKEKLLLLAKVKEGFETSVFDFPFKNIQPDSPYFVCLDPPCKKESAYNKVIGDKNRTVYHEINKTEFENMIKLRTKRLKLLIGEVDAEVSTGDKIEFPVLANGKRRGFIYNVGGLVTDIAWLNIEENTDIGKDIQYLAVAVSQYMDEPLNEHLEMFDKEKHSSCIQIFKMNTSTLHCVKVQTIVHSFGEVWDLKWHEGCHAPHLVGCLSFVSQEGTINFLEIIDNATDVHVFKMCEKPSLTLSLADSLITTFDFLSPTTVVCGFKNGFVAEFDLTDPEVPSFYDQVHDSYILSVSTAYSDFEDTVVSTVAVDGYFYIFNPKDIATTKTTVSRFRGSNLVPVVYCPQIYSYIYSDGASSLRAVPSRAAFAVHPLVSRETTITAIGVSRLHPMVLAGSADGSLIITNAARRLLHGIKNSSATQKSLRLWKWDYSIKDDKYRIDSSYEVYPLTVNDVSKAKIDAHGINITCTKWNETSAGGKCYAFSNSAGLLTLEYLSLEHHHHHH | soluble
MGSDKIHHHHHHMQASFMRMTDKRSPGKPLHPHGVLRPLVFKGRGALSNHDGRFDHLQHADIDDGWHNLDQDLAPLPTEVLIDNSRSIINWNNSPDVPFDRSINPYRGCEHGCIYCFARPTHTYLGLSAGLDFESRILVKPDAARLLRQELSKQHYRCAPIAMGTNTDPYQPLEKQHQLTRQILQVLAEFRHPVSIVTKAAMVERDIDILAPMASQGLVQVFISITTLSNQVSRTLEPRAAAPQRRLDTIRRLHQAGIPTGVMTAPVIPVLTDPELEHILAAASEAGASSAGYVLLRLPLEVAPLFEEWLQHHYPLKASHVMSIIRQSRDGKTNHTDFHARMRGNGLFAEMIRQRFRLACRKLGLNQRSMEMDTSLFRPPGKPEQLGLF | not soluble
MNNIAAPDQSFNPAHVLSFDLETTSANPFEARIVTSALVRIDSSGAHPVELLADPGVEIPEAASKVHGISTEYAREHGEPHEAVLKRTVDEIYAAWEEGFTLVVYNAPYDLTVLRQLTGDFVVKGPVYDPYLIDRIMDRFRKGKRTLTDLCSVYGVRMDNAHEATSDALAAARIAWMQAKKRFKDDLAAYSHDELMEYQAVQYYELQKDMKKYLDGLGRDTSTVNFGWPMQNSR | not soluble
GSYCPRNLHLLPTTDTYLSKVSDDPDNLEDVDDEELNAHLLNEEASKLKERIWIGLNADFLLEQESKRLKQE | soluble
MSIFQSFKSVAAAIAVCAGIFTGFSANAQSVDDIVKRGSVKIGVLVGAPPFGSVDAQGNPVGYDADVATLIGKYLGVPVTMVQLTPPSRIPALESGKVDFLVATLAPTPERAKAVMFTNPYSAFQVGIYSHKDTKIEKWEDLKGMTVGVNRGSSVEREFVNREKELGLTILRFDDDATTMQALFSGQVQAIAGPDAQANAAIKLRGDTTTEVKFFFSIQPNSMTVRKDAVDLHQWLNNTIYYIKQNGELDAIARKWVGTPLPVLPTF | not soluble
MYKQLEKLITLTNNDLNLVNRRFGQRTDITSEQLELLRILFNYDRLSQYDLTMKISREQSIVSRWIKKLVLKGYITSQQSSEDLRCKELILTDQARTLISQINNARCELIEARCQCLSEVELDNLNQLLDKLNQRRISL | not soluble
MSLTLADKVVYEEEIQKSRFIAKAAPVASEEEALAFLAENREPEATHNGHAYKIGLLYRFSDDGEPSGTAGRPILHAIEAQGLDRVAVLVVRYFGGVKLGAGGLVRAYGGVAAEALRRAPKVPLVERVGLAFLVPFAEVGRVYALLEARALKAEETYTPEGVRFALLLPKPEREGFLRALLDATRGQVALE | soluble
